Data reported in patent US20210228738A1.

Columns and labels:
[1] = molecular target: hamster IgG (pooled hamster plasma)
[2] = molecular target: rhesus macaque IgG (NHP plasma)
[3] = molecular target: total IgG in human serum samples and pooled human plasma

B1: immunoglobulin G-degrading enzyme of Streptococcus pyogenes (IdeS) (protein)
chain: DSFSANQEIRYSEVTPYHVTSVWTKGVTPPANFTQGEDVFHAPYVANQGWYDITKTFNGKDDLLCGAATAGNMLHWWFDQNKDQIKRYLEEHPEKQKINFNGEQMFDVKEAIDTKNHQLDSKLFEYFKEKAFPYLSTKHLGVFPDHVIDMFINGYRLSLTNHGPTPVKEGSKDPRGGIFDAVFTRGDQSKLLTSRHDFKEKNLKEISDLIKKELTEGKALGLSHTYANVRINHVINLWGADFDSNGNLKAIYVTDSDSNASIGMKKYFVGVNSAGKVAISAKEIKEDNIGAQVLGLFTLSTGQDSWNQTN
- cleavage of IgG, non-reducing SDS-PAGE and Coomassie Blue staining [1]: IdeS was effective to cleave the IgG in the pooled hamster plasma and pooled human plasma in vitro
- cleavage of IgG, non-reducing SDS-PAGE and Coomassie stain [2]: In the NHP samples, IgG was similarly cleaved in all NAb titer groups
- cleavage of IgG, non-reducing SDS-PAGE and Coomassie Blue staining [3]: IdeS was effective to cleave the IgG in the pooled hamster plasma and pooled human plasma in vitro
- cleavage of IgG, non-reducing SDS-PAGE and Coomassie stain [3]: the lowest dose of IdeS cleaved all total IgG (~150 kD) to liberate the Fc fragment (~25 kD)
